Results from US20150351390A1, “COMPOSITIONS AND METHODS FOR AUXIN-ANALOG CONJUGATION” (PIONEER HI-BRED INTERNATIONAL, INC., priority 2012, published 2015).
“Also recorded” adds a separate entry of the source.

What was measured:
soybean seedlings = test: Soybean seedling response to spot infiltrated auxins and conjugates; as to 1st trifoliate leaf curl: key: 0 = no phenotype; +/− = threshold; as to Chlorotic lesion @ app. Pnt: key: 0 = no phenotype; +/− = threshold; assay type: in vivo; parameters: 1st trifoliate leaf curl / Epinasty score: key: 0 = no phenotype; +/− = threshold; details: for 1st trifoliate leaf curl / Chlorotic lesion @ app. Pnt / Epinasty score: spot infiltration
Protocol: Conjugate forms of auxinic compounds when applied through spot infiltration, a needleless method to introduce exogenous agents into plant cells. Initially, various concentrations of analytical grade (98%+pure) IAA, 2,4-D, and dicamba were prepared as solutions that were applied directly to uni-foliate leaves of 9 day old soybean seedlings by spot infiltration in order to determine the range of auxinic response and severity.
Spot infiltration comprises applying a compound to be tested in composition that is applied to the surface of a plant, for example, to a leaf or other plant structure. For example, a method for testing a plant response to one or more compounds using spot infiltration comprises a) providing a composition comprising one or more compounds to be tested in a container having at least an opening for the compound enter and/or exit, and one or more elements for moving the composition into or out of the container; b) contacting at least one opening of the container with the surface of a plant and moving the composition comprising one or more compounds to at least the surface of the plant. A container and elements for moving the composition may comprise a syringe body and plunger. Moving the composition to the plant surface comprises contacting the surface with pressure sufficient for the composition to enter the cells of the plant. In an aspect, spot filtration testing comprises measuring an effect of the composition on the contacted plant and comparing that measure or effect to a plant that is not contacted with the composition.
Plant response phenotypes were documented at one day post-spot infiltration and subsequently every other day, up to nine days post treatment. […] In the studies described herein below, 5 replicate treatments for each conjugate form were conducted, along with appropriate negative controls.
Examples 9 and 10 utilized a spot infiltration method for the delivery of an herbicide directly to leaves of a plant. The method generally allows for the directed delivery of a variety of agents to a localized area of a plant, e.g. localized region of leaves, for screening or assessment purposes, e.g. to quickly assess the response of a plant to the agent. As used in the foregoing examples, the spot infiltration method was used to introduce specific herbicides or specific conjugates of the herbicides to seedling plant leaves. Following introduction of the herbicide or the appropriate conjugate, plants were observed daily for nine days for characteristics of epinasty, trifoliate leaf curly, chlorosis, and new growth recovery.
Briefly, a solution of the desired agent is prepared of the desired agent, e.g. as described above in Example 10, solutions (5% EtOH) of 1, 2.5 and 5 mM IAA. The solution is then drawn into a 1 mL BD™ slip-tip syringe, bulk, non-sterile syringe (e.g. Becton, Dickinson and Company, Product No. 301025) with 100 μL markings. The desired volume is then applied to the leaf, e.g. as described in Examples 9 and 10, with the tip of the syring against the leaf and positive pressure applied to the syringe plunger. Sufficient pressure is applied in order to infuse the area beneath the syringe opening, but not so much pressure as to cause a visible-to-the-eye puncture or hole to form in the leaf. Some run-off of solution around the syringe opening is expected. In the foregoing examples, two spots were applied to each of two leaves per seedling for soybean plants. […] In soybean, both spots per leaf were at the distal portion of the leaf about 1-2 cm apart. When the method was applied to Arabidopsis, two developmentally intermediate aged leaves were chosen per plant, and one spot infiltration was carried out per leaf.

[1] = LC-MS assay of GH3 conjugation of IAA with Asp or Glu; assay type: biochemical
Summary of the method: (§1)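 N-His-tagged GH3 homologs expressed in E. coli C41(DE3) and Ni-NTA purified (44 to 164 μg/mL) were incubated 3 hours at 30° C. in 20 mM Tris-HCl pH 8.0, 5 mM MgCl2, 1 mM DTT with 5 mM each of auxin, ATP and Asp or Glu. Conjugates were quantified by LC-MS against standards.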

[2] = LC-MS assay of GH3 conjugation of 2,4-D with Asp or Glu; assay type: biochemical
Summary of the method: as §1

[3] = LC-MS assay of GH3 conjugation of dicamba with Asp or Glu; assay type: biochemical
Protocol: To detect and monitor the formation of acyl conjugates with 2,4-D or dicamba, a sensitive LC-MS method was developed using the respective amino acid conjugate standards. […] […] […] The supernatant was diluted 20× in water and then analyzed by LC-MS (AB Sciex 4000 QTrap coupled with Shimadzu Nexera UHPLC) using a Phenomenex Luna 3 μm Phenyl-Hexyl (00B-4256-Y0) column. The concentration of the conjugates was calculated based on the standards. Kinetic parameters were estimated by fitting initial velocity values to the Michaelis-Menten equation.
The GH3 superfamily conjugase activity analysis of IAA, 2,4-D or dicamba with Asp or Glu was done using LC-MS to analyze the final conjugate products as described in Example 1. Protein sequences of GH3 homologs (Table 3) were obtained from public databases (NCBI, http://www.ncbi.nlm.nih.gov/) by Blast analysis of AtGH3.17 protein sequence (accession # Q9FZ87). Coding sequences were designed for optimal expression in E. coli based on the protein sequences and synthesized. Synthesized coding sequences along with N-term his-tag coding sequences were cloned into a pET24a-based E. coli expression vector. The E. coli expression vectors were transformed into OverExpress C41(DE3) cells (Lucigen) for protein expression. Recombinant E. coli strains were inoculated into 5 ml LB media supplemented with 40 mg/L kanamycin and cultured overnight at 37° C. The overnight culture (0.5 mL) was inoculated into 50 mL LB medium plus 40 mg/L kanamycin and grown at 30° C. until OD600 reached 0.6. The cultures were induced with 0.2 mM IPTG at 16° C., 230 rpm overnight. Cells were harvested by centrifugation at 7,000 rpm for 10 mins. The cell pellet from 50 mL of cell culture was frozen and thawed twice and then lysed in 800 μL lysis buffer A (150 mM NaCl, 50 mM Tris-HCl pH 8.0, 5 mM MgCl2, 10% glycerol) plus 20 mM imidazole, 1 mM DTT, 0.2 mg/ml lysozyme, 1/200 protease inhibitor cocktail (EMD set3, EDTA free) and 1/2000 endonuclease. Lysate was then centrifuged at 13,000 rpm for 30 min at 4° C. Supernatant was loaded onto 200 μL Ni-NTA columns pre-equilibrated with buffer A with 20 mM imidazole at 4° C. Each column was then washed with (1) 2×800 μL of buffer A with 10 mM imidazole, (2) 2×800 μL of buffer A with 20 mM imidazole and (3) 2×200 μL of buffer A with 50 mM imidazole. Protein was eluted with 200 μL of buffer A with 250 mM imidazole. The concentration was measured by Bradford assay. Purified protein was used in conjugation reaction assays as described in example 1.

O=C(Cc1c[nH]c2ccccc12)NC(Cc1ccccc1)C(=O)O (centres unmarked) [IAA-Phe]
1st trifoliate leaf curl (soybean seedlings; 1.0 mM): 0 | Chlorotic lesion @ app. Pnt (soybean seedlings; 1.0 mM): 0 | Epinasty score (soybean seedlings; 1.0 mM): 0 | 1st trifoliate leaf curl (soybean seedlings; 2.5 mM): 0 | Chlorotic lesion @ app. Pnt (soybean seedlings; 2.5 mM): 0 | Epinasty score (soybean seedlings; 2.5 mM): 0 | 1st trifoliate leaf curl (soybean seedlings; 5.0 mM): 0 | Chlorotic lesion @ app. Pnt (soybean seedlings; 5.0 mM): 0 | Epinasty score (soybean seedlings; 5.0 mM): 0 | Plant response phenotype, soybean (soybean seedlings; 1, 2.5 and 5 mM, result in words): No discernable phenotype | Lesion on leaf surface at point of application, soybean (soybean seedlings; dissolved in 50% EtOH, consistent with 50% EtOH alone control): necrotic lesion on leaf surface at point of application

O=C(COc1ccc(Cl)cc1Cl)NC(Cc1ccccc1)C(=O)O [2,4-D-Phe]
1st trifoliate leaf curl (soybean seedlings; 100 μM): 0 | 1st trifoliate leaf curl (soybean seedlings; 250 μM): 0 | 1st trifoliate leaf curl (soybean seedlings; 500 μM): 0

B1: PtGH3-10: GH3 protein, accession EEE95291 (protein, listed as Populus trichocarpa)
chain: MEPKNTNGSSRSYEHDIISWFEDISKKAGQVQTETLRRILELNWGVEYLNKWLGDINIQDMDASALESLYTSLVPPASHADLEPYISRIADGDTVPLLTKQPITLLSLSSGTTDGRQKFVPFTDHSARTTLQIFSLAAAYRSRVYPTREGGRILEFIYSSKQFKTKGGLTAGTATTHYYASEEFKIKQEKTKCFTCSPQEVICGGDYEQSTYCHLLLGLFFCDQVEFITSTFAYSIVQAFTAFEDVWRDICNDIKHGTLSERINLAKMRKAVLSIISPNPSLASKIEENCKELETQNWLGLITKLWPNSKYVYSIMTGSMQPYFKKLRHYAGGLALVSADYGSTESWIGANVDPYLPPEDVTFAVIPTFSYYEFMPLYRENHYCGSAIDDFIEDEPVPLSKVKVGQEYEIVLTTFTGLYRCRLGDVVEVAGFHKGTPKLNFICRRKLILTINIDKNTEKDLQLVVEKGSQLLMSKARAELVDFTSHAELETQPGHYIIYWEIKGDVEEEVLGECCKKMDASFVDHGYVVSRRTKSIGPLELCIVKTGTFKKILEYFIGNGAALSQFKTPRCTSNHGLLKILNGSTIKRLYSTAYS
Detected auxin conjugates: IAA-Asp ([1]; LC-MS, IAA with Asp): Yes | Detected auxin conjugates: IAA-Glu ([1]; LC-MS, IAA with Glu): Yes | Detected auxin conjugates: 2,4-D-Asp ([2]; LC-MS, 2,4-D with Asp): Yes | Detected auxin conjugates: 2,4-D-Glu ([2]; LC-MS, 2,4-D with Glu): Yes | Detected auxin conjugates: Dicamba-Asp ([3]; LC-MS, dicamba with Asp): No | Detected auxin conjugates: Dicamba-Glu ([3]; LC-MS, dicamba with Glu): No

B2: PpGH3-2: GH3 protein, accession CAD42871 (protein, listed as Physcomitrella patens)
chain: MALRIENPYYKLLDTDEEIVEDFELMSRNARETQLELLRKILERNANVEYLQRQGLNGRTDEASFKACVPVSTYANIEADVDRIADGDTSPICCVDPPTSFALSSGTTGGKCKLIPRTDALLAQAMKAGQIGSVYRRRAFPRKHEGPPVVMSFQYAGRQFDTKSGLKAGTGTTNFYRSAAFKNAKSAPFSATSPVDIVLGYDVPQQMYCHLLCGLYRCQEVEQMSAIFAYMIVEPFRLLERVWRDICKDIREGTVNERVSDPELRSSVLKVLSPNPELADLIERECAKGWSGIIERLFPNINYIMSIFSGSMLPYVAPMRQYAGSVPLMNADYGASEAWIGINLDPRCPAEDASFTIIPNFAYFEFIPVNRDSAGYDSVEGDEIVGLTDVKVGQEYEIVLTTVGGLYRYRLGDIVKVTGFFNSTPKVAFVCRKGVVLSVNTDKTDEEELRLVVGKASLLLKESNMELADYSSYTDQDSQPGHYVIFWELRSHEHLDMDLLSECCKVLDQSFNNPYMRGRAARTIGPLELAIVKEGAFARLMEQFVRKNGVGASQYKVSRCFKNPATLKHFRDETIATLRSPDFPPELLAAWRPSTKIVG
kcat (hrs−1) IAA-Asp ([1]; conjugation of IAA with Asp by recombinant GH3 protein, IAA-Asp product by LC-MS): 2.896 h⁻¹ | kcat (hrs−1) IAA-Glu ([1]; conjugation of IAA with Glu by recombinant GH3 protein, IAA-Glu product by LC-MS): 19.308 h⁻¹ | IAA conjugation activity with Asp or Glu ([1]; result in words): can also conjugate IAA to Asp and Glu; also recorded: active GH3 conjugase for both IAA and 2,4-D | kcat (hrs−1) 2,4-D-Asp ([2]; conjugation of 2,4-D with Asp by recombinant GH3 protein, 2,4-D-Asp product by LC-MS, 5 mM 2,4-D substrate): 0.699 h⁻¹ | kcat (hrs−1) 2,4-D-Glu ([2]; conjugation of 2,4-D with Glu by recombinant GH3 protein, 2,4-D-Glu product by LC-MS, 5 mM 2,4-D substrate): 2.820 h⁻¹ | 2,4-D conjugation activity with Asp or Glu ([2]; result in words): active GH3 conjugase for both IAA and 2,4-D | Conjugation of dicamba with Glu ([3]; 16 hour reaction, result in words): could conjugate dicamba with Glu; also recorded: able to conjugate dicamba with glutamate | Amount of dicamba-Glu conjugates versus amount of protein in the reaction ([3]; FIG. 7, result in words): Increased amount of dicamba-Glu was detected; also recorded: increases with increased amount of PpGH3-2 protein | kcat (16 hrs^−1) dicamba-Glu ([3]; conjugation of dicamba with Glu, 16 hour reaction, protein conc. 983 μg/mL): 0.024 16 hrs^−1
